Source: PMC8794255, “Small molecule inhibitor of Igf2bp1 represses Kras and a pro-oncogenic phenotype in cancer cells” (RNA Biology, 2021)

Assays:
Igf2bp1 (human) [1] = test: MST; conditions: MST/EMSA: 10 mM Tris pH 7.5, 100 mM NaCl, 0.1 mM EDTA, IGEPAL, tRNA, heparin, 0.5-2 mM DTT, room temperature (MST protein in PBST mixed 1:1), FP: 10 mM Tris pH …
Igf2bp1 KH34 (human) = test: MST; conditions: MST/EMSA: 10 mM Tris pH 7.5, 100 mM NaCl, 0.1 mM EDTA, IGEPAL, tRNA, heparin, 0.5-2 mM DTT, room temperature (MST protein in PBST mixed 1:1); FP: 10 mM Tris pH …
Igf2bp1 (human) [2] = target: Igf2bp1 (human) (UniProt Q9NZI8); test: competition; conditions: MST/EMSA: 10 mM Tris pH 7.5, 100 mM NaCl, 0.1 mM EDTA, IGEPAL, tRNA, heparin, 0.5-2 mM DTT, room temperature (MST protein in PBST mixed 1:1); FP: 10 mM Tris pH …
Sequence of Igf2bp1 (human) (UniProt Q9NZI8) (Q9NZI8 whole entry): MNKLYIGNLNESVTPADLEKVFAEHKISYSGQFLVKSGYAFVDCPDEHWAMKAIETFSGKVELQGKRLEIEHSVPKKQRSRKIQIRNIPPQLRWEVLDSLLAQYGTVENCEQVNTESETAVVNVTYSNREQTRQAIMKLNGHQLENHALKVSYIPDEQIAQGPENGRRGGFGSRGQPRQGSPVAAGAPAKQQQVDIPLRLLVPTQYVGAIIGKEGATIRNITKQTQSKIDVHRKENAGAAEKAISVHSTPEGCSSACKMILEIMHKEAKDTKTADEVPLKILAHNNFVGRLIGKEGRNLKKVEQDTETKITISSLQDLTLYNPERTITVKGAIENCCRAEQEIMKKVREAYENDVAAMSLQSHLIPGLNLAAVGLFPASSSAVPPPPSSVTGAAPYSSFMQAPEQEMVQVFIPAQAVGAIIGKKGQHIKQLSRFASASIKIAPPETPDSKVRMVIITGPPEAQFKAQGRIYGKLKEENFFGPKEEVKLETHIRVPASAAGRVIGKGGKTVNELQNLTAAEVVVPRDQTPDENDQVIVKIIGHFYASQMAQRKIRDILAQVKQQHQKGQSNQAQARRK

| Substance | Kd (Igf2bp1 (human) [1]; 50 uM 7773) [µM] | Kd (Igf2bp1 (human) [1]; 100 uM 7773) [µM] | Kd (Igf2bp1 (human) [1]) [µM] | Kd (Igf2bp1 (human) [1]; no compound) [µM] | Kd (Igf2bp1 KH34 (human)) [µM] | binding (Igf2bp1 (human) [2]) |
| --- | --- | --- | --- | --- | --- | --- |
| Kras 6 RNA | 0.063 | 0.12 | 0.02 | 0.056 | 0.2 | – |
| GGGUGAGGAGUACAGUGCAAUGAGGGACCAGUACAUGAGGACUGGGGAGGGCUUUCUUUGUGUAUUUGCCAUAAAUAAUACUAAAUCAUUUGAAGAUAUUCACCAUUAUAGAGAACAAAUUAAAAGAGUUAAGGACUCUGAAGAUGUACCUAUGGUCCUAGUAGGAAAUAAAUGUGAUUUGCCUUCUAGAACAGUAGACACAA [Kras 2 RNA] | – | – | – | – | – | binds more weakly |
